From paper PMC6774274, “Engineering a Seven Enzyme Biotransformation using Mathematical Modelling and Characterized Enzyme Parts” (Chemcatchem, 2019)
Blank lines part the entries; values can stand above or below the molecule they belong to.

Legend:
[1] = biological target: T1, mpCAR (Mycolicibacterium phlei, UniProt A0A5N5VEC4); assay: inhibition of CAR reaction; assay type: biochemical; conditions: read-out: K I-ADP
T1 construct: gene car; N-terminal 6xHis tag, pNIC28-Bsa4, E. coli BL21(DE3); co-expressed with Bacillus subtilis phosphopantetheine transferase; gene from genomic DNA
T1 sequence (A0A5N5VEC4 1-1162): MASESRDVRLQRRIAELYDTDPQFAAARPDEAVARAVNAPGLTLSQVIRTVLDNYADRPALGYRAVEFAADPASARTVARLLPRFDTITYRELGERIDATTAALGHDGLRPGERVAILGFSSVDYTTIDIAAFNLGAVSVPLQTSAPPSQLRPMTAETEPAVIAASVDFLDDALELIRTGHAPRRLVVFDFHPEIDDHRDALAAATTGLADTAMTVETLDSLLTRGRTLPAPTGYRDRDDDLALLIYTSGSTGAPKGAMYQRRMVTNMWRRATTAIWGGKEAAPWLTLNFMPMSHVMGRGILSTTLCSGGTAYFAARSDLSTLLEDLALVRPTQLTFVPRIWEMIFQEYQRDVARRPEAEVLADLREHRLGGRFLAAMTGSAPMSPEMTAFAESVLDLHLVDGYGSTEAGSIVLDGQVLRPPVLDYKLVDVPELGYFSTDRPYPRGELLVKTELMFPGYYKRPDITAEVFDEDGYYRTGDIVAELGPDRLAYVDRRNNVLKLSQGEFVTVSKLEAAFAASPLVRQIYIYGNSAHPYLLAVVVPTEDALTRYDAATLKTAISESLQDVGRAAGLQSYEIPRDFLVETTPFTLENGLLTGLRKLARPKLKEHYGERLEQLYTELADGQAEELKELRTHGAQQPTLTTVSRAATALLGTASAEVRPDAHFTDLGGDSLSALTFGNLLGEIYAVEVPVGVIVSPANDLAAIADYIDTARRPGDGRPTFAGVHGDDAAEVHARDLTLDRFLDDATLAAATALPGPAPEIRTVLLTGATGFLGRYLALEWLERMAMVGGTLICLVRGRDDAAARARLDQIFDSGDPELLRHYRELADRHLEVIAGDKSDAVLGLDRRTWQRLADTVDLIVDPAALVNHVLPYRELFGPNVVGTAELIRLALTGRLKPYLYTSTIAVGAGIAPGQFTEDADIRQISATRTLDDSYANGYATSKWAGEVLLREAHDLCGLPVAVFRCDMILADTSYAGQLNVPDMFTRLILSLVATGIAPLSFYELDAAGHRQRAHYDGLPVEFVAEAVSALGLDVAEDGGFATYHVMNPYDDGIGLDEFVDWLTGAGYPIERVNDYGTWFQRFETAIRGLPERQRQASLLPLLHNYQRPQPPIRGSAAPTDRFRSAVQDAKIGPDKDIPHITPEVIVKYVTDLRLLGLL
Text: inhibition of CAR reaction on mpCAR

[2] = biological target: T1, mpCAR; assay: NADPH oxidation at […] nm, two-substrate fit; assay type: biochemical; conditions: kinetic constant for ATP in the ordered rate equation, not an inhibition constant; otherwise as row above
[3] = substrate: Nc1ncnc2c1ncn2[C@@H]1O[C@H](COP(=O)(O)O)[C@@H](O)[C@H]1O; assay: ADP-Glo kinase assay, luminescence; assay type: biochemical, Thermodesulfobium narugense; conditions: polyphosphate co-substrate (12.5 mM PO3 units), 20 or 40 mM MgCl2, 100 mM Tris-HCl pH 7.5, 15 min
Text: ADP-Glo kinase assay, luminescence on tnPAP

[4] = substrate: Cc1ccc(C(=O)O)cc1; assay: purified protein; conditions: 0.25 mM NADPH, 10 mM MgCl2, varied ATP, 100 mM Tris-HCl pH 7.5, 30 °C
[5] = substrate: NC(=O)C1=CN([C@@H]2O[C@H](COP(=O)(O)OP(=O)(O)OC[C@H]3O[C@@H](n4cnc5c(N)ncnc54)[C@H](OP(=O)(O)O)[C@@H]3O)[C@@H](O)[C@H]2O)C=CC1; assay: purified protein; assay type: biochemical, Mycolicibacterium phlei; conditions: 10 mM MgCl2, 1 mM ATP, 10 mM 4-toluic acid, 100 mM Tris-HCl pH 7.5, 30 °C, varied: cofactor
[6] = substrate: Nc1ncnc2c1ncn2[C@@H]1O[C@H](COP(=O)(O)OP(=O)(O)OP(=O)(O)O)[C@@H](O)[C@H]1O; assay: purified protein; assay type: biochemical, Mycolicibacterium phlei; conditions: 0.25 mM NADPH, 10 mM MgCl2, varied 4-toluic acid, 100 mM Tris-HCl pH 7.5, 30 °C

B1: tnPAP (Thermodesulfobium narugense DSM 14796) (protein)
chain: MLEKVDLNKIMDREDYKKEFDNLSIELGALQREARDLKLPIIIVFDGFEAAGKGTLINKLMLPLDPRGYDVIKRFECPSETDNRPYFYKFWKTIPKRGDISIVNESWYKALLSDRVLKKTSPEIVEYLFDEILSFEGQLVADGYLIVKFFLYISEEEQKDRLKKLKKNKDESWRVTDDVLKLHKKYKKFLDAAETVFEKTDTAFAPWTIIEATDKRYATIKIFKTLIEAIKFKIKAIKEKEELPSFENFYPVNELSSLSKIDLNKSLTYEEYIEKLHPLQREIHDLQYRLWKERVPVIVAFEGWDAAGKGGSIKRLTEAMDPRGYTVIPIGAPNEYELAHHYLWRFWQNVPEKGNIAIFDRTWYGRVLVERVEKLCKDFDWQRAYGEIKQMEKQFTNFGIVLLKFWLHIDKKTQLERFEEREKNPFKHWKITEDDWRNRSKWDDYLPAVEEMLIRTSTAEAPWNIIEANDKYFARIKVLETFVNKIKEKLN
notes: N-terminal 6xHis tag, codon-optimised, pNIC28-Bsa4, E. coli
Km [3]: 280 ± 240 µM
kcat [3]: 4.17 ± 2.08 s⁻¹

B2: mpCAR (Mycolicibacterium phlei DSM 43239 = CCUG 21000) (protein)
chain: T1 sequence (A0A5N5VEC4 1-1162)
notes: N-terminal 6xHis tag, pNIC28-Bsa4, E. coli BL21(DE3); co-expressed with Bacillus subtilis phosphopantetheine transferase; gene from genomic DNA
Km [4]: 1,500±320 μM
kcat [4]: 3.33 ± 0.333 s⁻¹
Km [5]: 30 ± 8 µM
kcat [5]: 3.33 ± 0.333 s⁻¹
Km [6]: 100 ± 28 µM
kcat [6]: 3.33 ± 0.333 s⁻¹

Further lines, results first:

Ki [1]: 11 mM
Molecule: Nc1ncnc2c1ncn2[C@@H]1O[C@H](COP(=O)(O)OP(=O)(O)O)[C@@H](O)[C@H]1O [ADP]

K I-ATP [2]: 0.04 ± 0.034 mM
Molecule: Nc1ncnc2c1ncn2[C@@H]1O[C@H](COP(=O)(O)OP(=O)(O)OP(=O)(O)O)[C@@H](O)[C@H]1O [ATP]
